{"source": "patent US20040063188A1", "target": "recombinant HPV-16 L1 VLPs (baculovirus-derived, from Sf-9S insect cells) (human papillomavirus type 16) (UniProt P03101)", "sequence (P03101 whole entry)": "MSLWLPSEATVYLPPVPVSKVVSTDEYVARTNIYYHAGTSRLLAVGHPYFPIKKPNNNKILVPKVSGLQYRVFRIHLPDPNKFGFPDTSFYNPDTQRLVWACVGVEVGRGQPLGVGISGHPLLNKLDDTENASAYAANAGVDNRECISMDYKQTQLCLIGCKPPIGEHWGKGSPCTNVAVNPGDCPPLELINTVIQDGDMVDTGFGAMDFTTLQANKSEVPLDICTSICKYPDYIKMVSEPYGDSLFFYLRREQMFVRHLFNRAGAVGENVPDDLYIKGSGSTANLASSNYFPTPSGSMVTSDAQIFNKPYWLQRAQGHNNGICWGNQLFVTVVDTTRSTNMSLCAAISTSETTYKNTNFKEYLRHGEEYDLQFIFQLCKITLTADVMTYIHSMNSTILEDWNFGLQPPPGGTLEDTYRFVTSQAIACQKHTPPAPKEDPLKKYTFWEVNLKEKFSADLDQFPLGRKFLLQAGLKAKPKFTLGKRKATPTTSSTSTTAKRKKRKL", "assay": "ELISA; 1000 ng VLPs mixed with infected-cell supernatants; reference is the same pair with VLPs in buffer or in sucrose (FIG. 11)", "data": [{"substance": "H16.V5 murine monoclonal antibody", "values": [{"measurement": "fold decrease in binding activity", "value": 5, "unit": "fold"}]}]}
